One block for each binder: values may come before it.
How the values were obtained:
[1] = target: T1, recombinant human interleukin 9 receptor alpha (hIL9R) fused, at the c-terminal, to a human IgG1 Fc (hIL9R-Fc) (human, UniProt Q01113 41-270); assay: selected from the clones positive in ELISA of periplasmic extracts on coated hIL9R-Fc
T1 construct: Bought protein; also called Acro Biosystems, Cat. No. ILR-H5251; not shown: human IgG1 Fc fused at the C-terminal
T1 sequence: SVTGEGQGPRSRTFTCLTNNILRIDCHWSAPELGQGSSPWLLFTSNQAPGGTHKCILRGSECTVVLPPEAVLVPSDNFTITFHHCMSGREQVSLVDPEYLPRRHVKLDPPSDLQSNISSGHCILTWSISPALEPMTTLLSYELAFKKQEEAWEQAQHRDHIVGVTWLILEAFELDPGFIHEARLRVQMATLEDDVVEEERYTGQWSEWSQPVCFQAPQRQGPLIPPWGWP
Description: (§1) The antigen used for panning and ELISA screening was the same as the one used for immunization (Acro Biosystems, Cat. No. ILR-H5251), using uncoated blocked wells as negative control (blank) and hIgG1-Fc (Sino Biological, Cat. No. 10702-HNAH) coated wells as reference for Fc specific clones. Out of these 570 colonies tested by ELISA, 90 colonies scored positive for hIL9R-Fc only. Based on sequence data of the positive colonies, 29 different Nanobodies were distinguished, belonging to 14 different CDR3 groups (B-cell lineages)

hIgG1-Fc = target: T2, hIgG1-Fc (human, UniProt P01857-1 99-330 = IgG part, limits assumed); assay: ELISA, crude periplasmic extracts on hIgG1-Fc coated wells as reference for Fc specific clones
T2 construct: domain: Fc; also called Sino Biological, Cat. No. 10702-HNAH
Description: as §1

binding result [1]: binds
binding result (hIgG1-Fc): no binding
B1: 2SAT363 (VHH)
VHH: QVQLQESGGGLVQAGGSLRLSCTVSGSFFNINAMGWYRQAPGKQRELVATITAGGSTKYEDTVKGRFTISGDSAKNTVSLQMNSLKPEDTAVYYCAAWGTRIRDDYWGQGTQVTVSS
notes: Screened as soluble Nanobody in crude periplasmic extracts, expressed from pMECS-GG; also called T2; VHH anti-IL-9Rα 2SAT363

binding result [1]: binds
binding result (hIgG1-Fc): no binding
B2: 2SAT57 (VHH)
VHH: QVQLQESGGGLVQAGGSLRLSCAASGSIFSINAMGWFRQAPGKQRELVAVISSGGSTNHADSVKGRFTISRDNAKNTVYLQMNSVKPEDTAVYYCLVATRGGTYEYWGQGTQVTVSS
notes: Screened as soluble Nanobody in crude periplasmic extracts, expressed from pMECS-GG; also called T3; VHH anti-IL-9Rα 2SAT57

Source: patent US20260216243A1 (TWAIN THERAPEUTICS PTE, published 2026)
